According to patent US11466067B2 (priority 2019, dated 2022):

Experiments:
colonic genes = experiment: Pan-colonic administration in NHP: colonic gene expression at 8 h; assay type: in vivo, cynomolgus monkeys
Method: Colonic biopsies at each tissue timepoint were analyzed for local concentration of IL-10 delivery construct, total IL-10, IL-1Ra, soluble cytokines, activation of STAT3 and gene expression following administration of the IL-10 delivery construct. […] In addition, STC1, MTNR1A and VNN2 encode proteins that suppress the […] signaling pathway, a pathway through which key pro-inflammatory cytokines are regulated. […] This is consistent with the ability of IL-10 to suppress these cells' activation or differentiation towards a pro-inflammatory immune phenotype.

IL-1Ra [1] = assay type: in vivo, mice; conditions: 9 mg/kg
enterocytes = experiment: Vesicular trafficking co-localization (Rab7, Rab11, LMAN1, LAMP1) in jejunum; assay type: in vivo, rat
Text: The timing of LMAN1 redistribution to the basal compartment coincides with the presence of hIL-10 being ultimately detected in non-polarized cells within the Lamina propria where it was not associated with LMAN1.
Ultimately, the delivery construct is delivered to lysosome-like structures within a large fraction of cells within the Lamina propria, an outcome that would limit its systemic distribution following A-B transcytosis.

[2] = Intraluminal injection in T-cell transfer colitis model, rhIL-10 ELISA; assay type: in vivo, BALB/c and SCID mice
Method: This study was conducted to examine the potential for the carrier protein to transport rhIL-10 from the intestinal lumen into the submucosal region in inflamed intestinal tissue. The T lymphocyte (T cell) transfer model was used as it is a well-established model of induced chronic colitis in mice and presents many of the essential immunological hallmarks observed in IBD patients. Nine BALB/c mice and twelve SCID mice, including nine with the colitis-like model of inflammation, were dosed with 20 μl of test article via intraluminal injection into the distal ileum and the proximal, middle and distal colon.
PBS vehicle was administered to healthy BALB/c mice and both healthy and induced colitis SCID mice (n=3/group). In each group, two mice were terminated 10 minutes after intraluminal injections, and one was terminated 40 minutes after intraluminal injections. Intestinal tissue and serum were collected. Collected tissue was fixed, embedded, sectioned and H&E stained for histological assessment of inflammatory status. ELISA analysis to measure rhIL 10 was performed on lysates prepared from intestinal tissue and serum (FIGS. 106A-106D).

[3] = Process trains with S-650F cation exchange: yield, recovery, purity, endotoxin
Method: Refolding was carried out at 4° C. in a refolding solution containing 1 mM reduced glutathione, 0.5 mM oxidized glutathione, 1M Arginine-HCl, 250 mM sucrose, 100 mM Tris pH 8.5 at 4° C., and 2 mM EDTA. […] Buffer A for the CHT bind/elute step in Table 56 may also comprise 25 mM Tris, pH7.5, 300 mM NaCl, 5.0 mM NaPi, 0.5 mM CaCl2. Columns used are described in Table 58.
The yield, recovery, and purity of the IL-10 delivery construct was assess after each step, and after each process train.

colonic markers = experiment: Colonic sigmoidoscopy spray in NHP: inflammatory and tissue repair markers; assay type: in vivo, Macaca fascicularis; conditions: 1, 3, 10 mg
Method: To assess the effect of an IL-10 delivery construct on pro-inflammatory and anti-inflammatory markers the IL-10 delivery construct was delivered to male Macaca fascicularis monkeys (about 5 to about 8 kg) by colonic sigmoidoscopy with a spray nozzle. The IL-10 delivery construct was administered at doses of 1 mg, 3 mg, and 10 mg formulated in albumin.

IL-1Ra [4] = experiment: Single oral capsule dose in NHP: plasma IL-1Ra; assay type: in vivo, Macaca fascicularis
Method: The purpose of the IL-1Ra assay was to measure endogenous IL-1Ra in NHP plasma. The antibody pair in this sandwich immunoassay reacted with both human and NHP IL-1Ra. Samples were quantitated using an 8-point standard curve prepared from a human IL-1Ra calibrator (ranging from 5.5-4021 pg/mL, plus 0 pg/mL). Biotinylated anti-NHP IL-1Ra capture antibody was added to a MSD Small Spot Streptavidin plate and incubated for an hour at RT with shaking. Controls that represent low ([…]), mid ([…]) and high concentrations (3245 pg/mL) were prepared in pooled plasma, Standards (Calibrator 9 Blend) were prepared in Diluent 43 (MSD Cat No R50AG), and samples diluted 10 fold in Diluent 43. Standards, controls and diluted samples were added to the assay plate, and the plate incubated for 2 hours at room temperature with shaking. The plate was washed 3 times with PBST, and 1×SULFO TAG anti-IL-1Ra Antibody added to the plate. The plate was incubated for 1 hour at room temperature with shaking. Following a wash step, 2×MSD Read buffer was added to the wells of the plate, and the plate read using the MSD Sector Imager 600 plate reader. The lower limit of detection of each analyte is defined as 2.5 standard deviation above background.
IL-10 delivery construct dosing at multiple fixed doses in non-naïve adult male Macaca fascicularis was conducted by Valley Biosystems (West Sacramento, Calif.). […] Dosing groups are described in TABLE 45.
Blood samples were collected in K2EDTA tubes from each animal pre-dose and at 0.5, 1, 2, 3, 4, 5, 6, 7, 8, and 24 hours post-dose. Animals were returned to home cages following the 2-hour sample collection. Following physical restraint, blood samples were collected via direct venous puncture using a cephalic, femoral or saphenous vein, which were processed to plasma and stored frozen at −60° C. until shipment.

STAT3 phosphorylation = experiment: pSTAT3 and hIL-10 immunofluorescence in intestine 40 min post oral gavage; assay type: in vivo, rat
Method: This observation is consistent with findings in mice that intestinal epithelial cells can express IL-10 receptors at their apical surface under certain conditions associated with development and maintenance of barrier function. […] In order to quantify how test articles affected intestinal IL-10 signal transduction pathways, image analysis was performed: high-throughput image batches were collected, segmented by epithelial versus Lamina propria localization, and then by cellular features.

[5] = Control process train: Capto Q, CHT (Linear elution), based on historical data
[6] = PT1: Capto Q, S-650F, CHT (FT mode)
[7] = PT2: Capto Q, CHT (Step elution), S-650F
[8] = PT3: S-650F, Capto Q, CHT (FT mode)

B1: IL-10 delivery construct: recombinant homodimeric fusion protein: N-terminal methionine, cholix386 domain, polyGlySer spacer, recombinant human IL-10 (protein)
chain: MVEEALNIFDECRSPCSLTPEPGKPIQSKLSIPSDVVLDEGVLYYSMTINDEQNDIKDEDKGESIITIGEFATVRATRHYVNQDAPFGVIHLDITTENGTKTYSYNRKEGEFAINWLVPIGEDSPASIKISVDELDQQRNIIEVPKLYSIDLDNQTLEQWKTQGNVSFSVTRPEHNIAISWPSVSYKAAQKEGSRHKRWAHWHTGLALCWLVPMDAIYNYITQQNCTLGDNWFGGSYETVAGTPKVITVKQGIEQKPVEQRIHFSKGNAMSALAAHRVCGVPLETLARSRKPRDLTDDLSCAYQAQNIVSLFVATRILFSHLDSVFTLNLDEQEPEVAERLSDLRRINENNPGMVTQVLTVARQIYNDYVTHHPGLTPEQTSAGAQAGGGGSGGGGSGGGGSPGQGTQSENSCTHFPGNLPNMLRDLRDAFSRVKTFFQMKDQLDNLLLKESLLEDFKGYLGCQALSEMIQFYLEEVMPQAENQDPDIKAHVNSLGENLKTLRLRLRRCHRFLPCENKSKAVEQVKNAFNKLQEKGIYKAMSEFDIFINYIEAYMTMKIRN
modifications: homodimer
- MMP1, MMP3 and MMP19 expression (colonic genes): upregulated
- TIMP1 expression (colonic genes): increased
- anti-inflammatory genes (CD163, miR24-2, NOX1, STC1, MTNR1A, VNN2) (colonic genes): upregulated
- pro-inflammatory genes (MHCII, PLA2G2D, CCL20, CCL13) (colonic genes): decreased
- CYP1A1 expression (colonic genes; 12-hour fast prior to treatment): downregulated
- IL-1Ra mRNA in near-distal colonic tissue (IL-1Ra [1]): trend towards augmented mRNA expression of IL-1Ra
- IL-1Ra/IL-1β ratio in colonic tissue (IL-1Ra [1]): increase in the IL-1Ra/IL-1β ratio
- co-localization with LAMP1 in polarized enterocytes (enterocytes; 1-15 min post ILI): Limited LAMP1/delivery construct co-localizations
- co-localization with LMAN1 (enterocytes; 1-15 min post ILI): co-localized with redistributing LMAN1
- co-localization with LAMP1 in non-polarized cells of Lamina propria (enterocytes; 10 min and 15 min post ILI): extensive LAMP1/delivery construct co-localizations
- co-localization with Rab7+ vesicles (enterocytes; enterocytes): predominantly in the apical vesicular compartment
- co-localization with Rab11+ vesicles (enterocytes; enterocytes): mostly in the basal vesicular compartment
- rhIL-10 in serum of healthy animals ([2]; 159 pmoles intraluminal): moderately high
- rhIL-10 in serum of inflamed animals ([2]; 159 pmoles intraluminal): minimal amounts
- rhIL-10 levels in inflamed tissue vs rhIL-10 alone ([2]; 159 pmoles, 10 minutes): approximately 10 fold higher
- rhIL-10 uptake in normal intestinal tissues vs rhIL-10 alone ([2]; 159 pmoles, 10 minutes): two- to five-fold higher
- Endotoxin [3, 5]: *8 EU/mg
- Purity [3, 5]: *85%
- Yield ([3]; Control: Capto Q ImpRes, CHT gradient B/E): 68 mg
- Endotoxin [3, 6]: 8.9 EU/mg
- Purity [3, 6]: 92%
- Yield ([3]; PT2: Capto Q ImpRes, CHT step B/E 80 mM NaPi, S-650F): 26 mg
- Endotoxin [3, 7]: 5 EU/mg
- Purity [3, 7]: 91%
- Endotoxin [3, 8]: 0.4 EU/mg
- Purity [3, 8]: 96%
- expression of anti-inflammatory markers (colonic markers): increased expression
- expression of pro-inflammatory markers (colonic markers): decreased expression
- expression of tissue repair and wound healing biomarkers (colonic markers): increased expression
- time of plasma IL-1Ra Cmax (IL-1Ra [4]; 82 mg): 3 hours post-dose
- dose response of IL-1Ra Cmax (IL-1Ra [4]; 1, 4 and 20.5 mg): No dose response relationship
- time by which plasma IL-1Ra returned to baseline (IL-1Ra [4]; all dose groups): ≤ 24 hour post-dose
- hIL-10 and pSTAT3 in intestinal tissue (STAT3 phosphorylation): extensive amounts of hIL-10 and a large number of cells that were positive for pSTAT3 within the Lamina propria
